Reference: patent publication US20250152663A1, “COMPOSITION FOR PREVENTION OR TREATMENT OF DRY EYE DISEASE COMPRISING HAPLN1” (HAPLNSCIENCE INC., priority 2021, published 2025)

Legend:
rabbit dry eye model = experiment: Tear volume assay (STT), benzalkonium chloride-induced dry eye disease model; assay type: in vivo, New Zealand white rabbits
Description: One drop (0.05 ml) of 0.1% benzalkonium chloride (BAC) was administered to both eyes of rabbits twice a day (9:00 and 17:00) for 14 days, and then induction of dry eye was identified by examination of eyes, and the rabbits were classified into groups.
The test substance was dropped into the groups of the rabbit model twice a day (8:30 and 16:30) (Day 15 to 30 (total of 16 days)).
Anesthesia was induced by intramuscular injection of Xylazine and Ketamine, and then one drop of Alcaine Eye Drop was administered and tear and the eye drop remaining therein were removed by using Weck-cel cellulose spear. After putting STT paper on the lower eyelid, a length of a wet region for 5 minutes was measured (STT-2). In addition, stability of the tear film was tested by measuring tear film break up time (TFBUT, measurement of time taken for the tear film to break down). Furthermore, conditions of the cornea and fluorescent staining were identified by a slit test.

mouse dry eye model = experiment: Corneal fluorescein score, low-humidity+scopolamine-induced dry eye disease model; assay type: in vivo, C57BL/6
Description: Corneal fluorescein score assay and tear volume assay were respectively performed on eyeballs of mice treated with the compositions of Preparation Examples 1, 2, and 3 prepared in Example 7 above by using a low-humidity+scopolamine-induced dry eye disease (DED) model.
When obtaining experimental animals, inspection and quarantines were carried out by referring the microbiological monitoring report of a test system provided by the supplier and observing the appearance of the experimental animals. Animals with no apparent abnormalities were brought into a vivarium and acclimated for 2 weeks in an animal room where tests were conducted. During the quarantine and acclimation period of 2 weeks, health condition and suitability for the experiment were evaluated, and then healthy animals were selected. By using only the animals with no abnormalities during the quarantine and acclimation period, dry eye disease was induced and the degree of corneal damage was evaluated by corneal fluorescein staining, and the test groups were classified by a Z-array method according to clinical scores. A dry eye disease test group consisted of eyeballs with a corneal fluorescein stain score of 7 to 15, and a sham group (normal) consisted of eyeballs not having a corneal fluorescein stains core of 5 or more. […]

CD45 in lacrimal glands = experiment: CD45 immunofluorescence in lacrimal gland, mouse dry eye model; assay type: in vivo, C57BL/6; conditions: after 16 days of drug treatment
Description: In this example, expression of CD45 was identified in lacrimal glands in order to identify in vivo anti-inflammatory effect of the HAPLN1 protein-containing composition of the present disclosure. That is, on the 2nd day after 16 days of drug treatment, eyes were enucleated and paraffin blocked. IHC-IF was performed on a section slide, and expression (green) of CD45 was identified by using an Anti-CD45 antibody. FIG. 12B is a graph illustrating quantified expression levels of FIG. 12A.

corneal epithelial cells = experiment: Detached corneal epithelial cells (H & E staining), rabbit dry eye model; assay type: in vivo, New Zealand white rabbits
Description: Eyes of the rabbits including conjunctiva were enucleated, fixed with a specific fixing solution to be embedded into paraffin, and microsectioned, followed by staining and analysis according to the purpose. In this regard, the eyeballs were stained by hematoxylin & eosin (H & E) staining and detachment of corneal epithelial tissue was analyzed. After PAS staining, distribution of goblet cells in the conjunctiva was measured. In addition, after conjunctiva epithelium indentation (impression cytology), PAS staining was performed and distribution of goblet cells was measured.
After 15 days of eye examination, on the 1st day after 16 days of drug treatment, eyes were enucleated, subjected to histopathological analysis, and paraffin blocked. Tissue was stained in a section slide by H & E staining (FIG. 16A). The number of corneal epithelial cells detached in a range of 200 μm^2 was measured and quantified (FIG. 16B).

B1: hyaluronan and proteoglycan link protein 1 (HAPLN1) (protein, listed as Homo sapiens)
chain: MKSLLLLVLISICWADHLSDNYTLDHDRAIHIQAENGPHLLVEAEQAKVFSHRGGNVTLPCKFYRDPTAFGSGIHKIRIKWTKLTSDYLKEVDVFVSMGYHKKTYGGYQGRVFLKGGSDSDASLVITDLTLEDYGRYKCEVIEGLEDDTVVVALDLQGVVFPYFPRLGRYNLNFHEAQQACLDQDAVIASFDQLYDAWRGGLDWCNAGWLSDGSVQYPITKPREPCGGQNTVPGVRNYGFWDKDKSRYDVFCFTSNFNGRFYYLIHPTKLTYDEAVQACLNDGAQIAKVGQIFAAWKILGYDRCDAGWLADGSVRYPISRPRRRCSPTEAAVRFVGFPDKKHKLYGVYCFRAYN
- tear volume compared with Restasis (rabbit dry eye model; after 10 days): increased the tear volume far more than Restasis
- tear volume (rabbit dry eye model; concentration-dependent, from the 5th day, more than Restasis): consistently increased
- CFS level compared with Cyclosporine A (mouse dry eye model; after 11 days): reduced the CFS level more than Cyclosporine A
- CFS level (mouse dry eye model; eye drop 0.5, 5, 50 μg/ml, 5 μL b.i.d., regardless of the concentration): consistently decreased
- expression level of CD45 compared with Cyclosporine A (CD45 in lacrimal glands): reduced the expression level of CD45 more than Cyclosporine A
- expression of CD45 in lacrimal glands (CD45 in lacrimal glands): decreased
- number of detached corneal epithelial cells (corneal epithelial cells; after 16 days of drug treatment, concentration dependent): decreased
- degree of detachment of corneal epithelial cells (corneal epithelial cells; high concentration (50 μg/ml)): lowest
